These results are taken from patent publication US12600782 (BIOTHEUS, dated 2026).

The target in assay [1] is human PD-L1 protein (purchased from AcroBiosystems) (human) (UniProt Q9NZQ7). Kind of assay: flow cytometry blocking assay: antibody pre-incubated with biotinylated human PD-L1 protein (1 ug/ml), binding of PD-L1 to CHO-hPD-1 cells read as MFI; falling curve, the table under the plot calls the half-maximal concentration EC50; unit from the concentration axis. Background: Flow cytometry measures light scatter and fluorescence of single cells or particles in a stream.
Chain of human PD-L1 protein (purchased from AcroBiosystems) (human) (Q9NZQ7 19-238 limits assumed): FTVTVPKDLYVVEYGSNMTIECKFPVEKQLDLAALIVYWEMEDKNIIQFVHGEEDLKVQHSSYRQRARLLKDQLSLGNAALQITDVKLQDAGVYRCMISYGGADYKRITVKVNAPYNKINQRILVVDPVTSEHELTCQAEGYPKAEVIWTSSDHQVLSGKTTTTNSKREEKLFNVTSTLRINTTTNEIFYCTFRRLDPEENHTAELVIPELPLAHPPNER

Assay [2] has the same target. Kind of assay: BLI (ForteBio), antibody on AHQ sensor, 100 nM PD-L1 antigen, 1:1 model. (In general: BLI is a label-free optical method that tracks binding on a fibre tip over time.)
In assay [3] the target is human PD-L1 on CHO cells (CHO-hPD-L1 cells) (human) (UniProt Q9NZQ7). Kind of assay: flow cytometry on CHO-hPD-L1 cells, PE anti-human IgG-Fc, MFI; table under the plot, unit from the concentration axis.
Chain of human PD-L1 on CHO cells (CHO-hPD-L1 cells) (human) (Q9NZQ7 19-290): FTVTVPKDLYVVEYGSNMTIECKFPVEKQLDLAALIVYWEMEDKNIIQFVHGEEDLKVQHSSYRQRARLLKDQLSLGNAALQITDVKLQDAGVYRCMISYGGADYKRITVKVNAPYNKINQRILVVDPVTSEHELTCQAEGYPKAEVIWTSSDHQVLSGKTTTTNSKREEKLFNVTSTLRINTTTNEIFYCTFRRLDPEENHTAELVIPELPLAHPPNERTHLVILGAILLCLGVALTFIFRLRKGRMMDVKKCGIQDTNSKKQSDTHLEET
For assay [4], the target named is human PD-L1 protein (purchased from AcroBiosystems) (human) (UniProt Q9NZQ7). Kind of assay: BLI (ForteBio), antibody on AHQ sensor, 100 nM PD-L1 antigen, 1:1 model. This is another data set of the same source.
The target of assay [5] is T1, human PD-1 on CHO cells (CHO-hPD-1 cells) (human, UniProt Q15116 25-288).
T1 construct: whole, on cells
T1 sequence (Q15116 25-288): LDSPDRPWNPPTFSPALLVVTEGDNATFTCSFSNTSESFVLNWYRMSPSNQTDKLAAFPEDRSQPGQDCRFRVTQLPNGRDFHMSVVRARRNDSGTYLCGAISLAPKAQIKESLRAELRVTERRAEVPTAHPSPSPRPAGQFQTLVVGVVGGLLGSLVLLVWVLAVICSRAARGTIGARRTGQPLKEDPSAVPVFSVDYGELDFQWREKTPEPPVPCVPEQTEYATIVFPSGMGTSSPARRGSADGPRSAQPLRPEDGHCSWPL
Kind of assay: flow cytometry: biotinylated human PD-L2 protein (1 ug/ml) on CHO-hPD-1 cells, no antibody. As to the method: CHO cells overexpressing human PD-1 (CHO-hPD-1 cells) were generated by transfection of the pCHO1.0 vector (purchased from Invitrogen™) cloning human PD-1 cDNA (purchased from Sino Biological). The expanded CHO-hPD-1 cells were adjusted to a cell density of 2×10⁶ cells/ml, and were added to 96-well flow plate at 100 μl/well, and centrifuged for later use. The purified mutant sample was diluted with PBS and diluted 3 times from […] for 12 points. […] The co-incubation sample was added to the above-mentioned 96-well flow plate with cells 100 μl/well, incubated at 4° C. for 30 min, and washed twice with PBS. APC goat anti-mouse IgG (minimum×reactive) antibody diluted 100 times with PBS (purchased from Biolegend®) was added at 100 μl/well, incubated at 4° C. for 30 min, and washed twice with PBS. PBS was added at 100 μl/well to resuspend cells, and detection was performed on a CytoFlex (Bechman) flow cytometer and the corresponding MFI was calculated.

Like-named read-outs stand apart in the source and are kept apart here.

For control antibody ATE, the figures for the EC50 in assay [1] and in assay [3] were 6.31 nM and 4.53 nM, respectively. For the same molecule, the Kd (in general, the equilibrium constant for the complex coming apart) came out at 1.3 nM in assay [2] and 1.16 nM in assay [4].

B1: human PD-L2 protein (purchased from AcroBiosystems) (ligand, UniProt Q9BQ51 20-219, looked up)
chain: LFTVTVPKELYIIEHGSNVTLECNFDTGSHVNLGAITASLQKVENDTSPHRERATLLEEQLPLGKASFHIPQVQVRDEGQYQCIIIYGVAWDYKYLTLKVKASYRKINTHILKVPETDEVELTCQATGYPLAEVSWPNVSVPANTSHSRTPEGLYQVTSVLRLKPPPGRNFSCVFWNTHVRELTLASIDLQSQMEPRTHP
modifications: biotinylated in the blocking assays
notes: Bought soluble protein; also called PD-L2 antigen; biotinylated human PD-L2 protein
As for B1, the binding result in assay [5] is reported as “binds”.
